{
  "source": "patent US11111295",
  "target": "human claudin 18A2 (CLD18A2) (human)",
  "sequence (chain, as listed by the source limits assumed, form in doubt)": "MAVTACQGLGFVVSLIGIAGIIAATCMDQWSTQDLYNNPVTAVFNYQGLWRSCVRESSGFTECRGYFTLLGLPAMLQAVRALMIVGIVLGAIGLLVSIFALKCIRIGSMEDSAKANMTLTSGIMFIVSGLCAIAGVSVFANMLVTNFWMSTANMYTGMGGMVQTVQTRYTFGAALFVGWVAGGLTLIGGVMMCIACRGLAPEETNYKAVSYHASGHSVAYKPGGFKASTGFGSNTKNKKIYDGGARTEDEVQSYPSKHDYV",
  "assay": "cell-based or functional assay",
  "data": [
    {"substance": "hu8E5-28Z chimeric antigen receptor", "values": [
      {"measurement": "CAR-T cytotoxicity on AGS-A2 cells, effector-to-target ratio 3:1", "result": "> 60", "unit": "%"},
      {"measurement": "CAR-T cytotoxicity on BGC-823-A2 cells, effector-to-target ratio 3:1", "result": "> 90", "unit": "%"}
    ]}
  ]
}
